Results: IntAct's records for PubMed 29892012

B1: Cyclic AMP-dependent transcription factor ATF-4 (Homo sapiens), P18848 (parent)
chain: MTEMSFLSSEVLVGDLMSPFDQSGLGAEESLGLLDDYLEVAKHFKPHGFSSDKAKAGSSEWLAVDGLVSPSNNSKEDAFSGTDWMLEKMDLKEFDLDALLGIDDLETMPDDLLTTLDDTCDLFAPLVQETNKQPPQTVNPIGHLPESLTKPDQVAPFTFLQPLPLSPGVLSSTPDHSFSLELGSEVDITEGDRKPDYTAYVAMIPQCIKEEDTPSDNDSGICMSPESYLGSPQHSPSTRGSPNRSLPSPGVLCGSARPKPYDPPGEKMVAAKVKGEKLDKKLKKMEQNKTAATRYRQKKRAEQEALTGECKELEKKNEALKERADSLAKEIQYLKDLIEEVRKARGKKRVP
partner: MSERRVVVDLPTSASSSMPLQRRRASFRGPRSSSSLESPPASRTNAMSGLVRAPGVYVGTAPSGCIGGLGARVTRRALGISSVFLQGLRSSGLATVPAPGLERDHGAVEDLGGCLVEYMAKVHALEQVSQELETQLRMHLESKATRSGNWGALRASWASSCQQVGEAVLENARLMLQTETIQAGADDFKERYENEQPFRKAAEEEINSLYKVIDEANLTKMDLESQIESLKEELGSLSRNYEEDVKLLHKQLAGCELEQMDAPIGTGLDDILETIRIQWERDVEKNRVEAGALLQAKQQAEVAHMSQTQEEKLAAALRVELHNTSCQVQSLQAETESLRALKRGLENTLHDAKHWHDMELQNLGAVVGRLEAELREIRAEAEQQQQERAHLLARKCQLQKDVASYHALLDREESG
B2: Kinetochore protein NDC80 homolog (Homo sapiens), O14777 (parent)
chain: MKRSSVSSGGAGRLSMQELRSQDVNKQGLYTPQTKEKPTFGKLSINKPTSERKVSLFGKRTSGHGSRNSQLGIFSSSEKIKDPRPLNDKAFIQQCIRQLCEFLTENGYAHNVSMKSLQAPSVKDFLKIFTFLYGFLCPSYELPDTKFEEEVPRIFKDLGYPFALSKSSMYTVGAPHTWPHIVAALVWLIDCIKIHTAMKESSPLFDDGQPWGEETEDGIMHNKLFLDYTIKCYESFMSGADSFDEMNAELQSKLKDLFNVDAFKLESLEAKNRALNEQIARLEQEREKEPNRLESLRKLKASLQGDVQKYQAYMSNLESHSAILDQKLNGLNEEIARVELECETIKQENTRLQNIIDNQKYSVADIERINHERNELQQTINKLTKDLEAEQQKLWNEELKYARGKEAIETQLAEYHKLARKLKLIPKGAENSKGYDFEIKFNPEAGANCLVKYRAQVYVPLKELLNETEEEINKALNKKMGLEDTLEQLNAMITESKRSVRTLKEEVQKLDDLYQQKIKEAEEEDEKCASELESLEKHKHLLESTVNQGLSEAMNELDAVQREYQLVVQTTTEERRKVGNNLQRLLEMVATHVGSVEKHLEEQIAKVDREYEECMSEDLSENIKEIRDKYEKKATLIKSSEE
partner: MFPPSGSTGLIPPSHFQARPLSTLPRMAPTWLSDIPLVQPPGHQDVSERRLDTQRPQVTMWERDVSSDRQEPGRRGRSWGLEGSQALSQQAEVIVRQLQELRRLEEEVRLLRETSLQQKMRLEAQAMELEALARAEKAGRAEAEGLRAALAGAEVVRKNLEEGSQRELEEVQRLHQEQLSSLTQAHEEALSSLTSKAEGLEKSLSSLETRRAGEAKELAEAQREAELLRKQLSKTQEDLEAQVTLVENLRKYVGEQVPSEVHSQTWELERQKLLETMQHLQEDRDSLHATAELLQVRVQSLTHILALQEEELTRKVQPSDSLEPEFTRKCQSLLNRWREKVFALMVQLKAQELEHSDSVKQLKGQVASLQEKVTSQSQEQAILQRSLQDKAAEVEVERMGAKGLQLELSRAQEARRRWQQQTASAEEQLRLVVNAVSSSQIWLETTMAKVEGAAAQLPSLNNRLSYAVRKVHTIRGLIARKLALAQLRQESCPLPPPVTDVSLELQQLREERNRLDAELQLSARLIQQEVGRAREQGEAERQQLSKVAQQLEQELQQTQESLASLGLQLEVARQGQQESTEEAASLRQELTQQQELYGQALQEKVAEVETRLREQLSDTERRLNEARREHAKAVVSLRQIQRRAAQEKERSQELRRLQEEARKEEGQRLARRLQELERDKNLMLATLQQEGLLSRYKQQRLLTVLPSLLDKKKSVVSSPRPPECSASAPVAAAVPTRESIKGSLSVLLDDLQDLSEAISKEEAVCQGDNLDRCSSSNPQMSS
B3: Forkhead box protein S1 (Homo sapiens), O43638 (parent)
chain: MQQQPLPGPGAPTTEPTKPPYSYIALIAMAIQSSPGQRATLSGIYRYIMGRFAFYRHNRPGWQNSIRHNLSLNECFVKVPRDDRKPGKGSYWTLDPDCHDMFEHGSFLRRRRRFTRQTGAEGTRGPAKARRGPLRATSQDPGVPNATTGRQCSFPPELPDPKGLSFGGLVGAMPASMCPATTDGRPRPPMEPKEISTPKPACPGELPVATSSSSCPAFGFPAGFSEAESFNKAPTPVLSPESGIGSSYQCRLQALNFCMGADPGLEHLLASAAPSPAPPTPPGSLRAPLPLPTDHKEPWVAGGFPVQGGSGYPLGLTPCLYRTPGMFFFE
B4: Keratin, type I cuticular Ha8 (Homo sapiens), O76015 (parent)
chain: MTSSYSSSSCPLGCTMAPGARNVSVSPIDIGCQPGAEANIAPMCLLANVAHANRVRVGSTPLGRPSLCLPPTCHTACPLPGTCHIPGNIGICGAYGENTLNGHEKETMQFLNDRLANYLEKVRQLEQENAELEATLLERSKCHESTVCPDYQSYFHTIEELQQKILCSKAENARLIVQIDNAKLAADDFRIKLESERSLRQLVEADKCGTQKLLDDATLAKADLEAQQESLKEEQLSLKSNHEQEVKILRSQLGEKLRIELDIEPTIDLNRVLGEMRAQYEAMLETNRQDVEQWFQAQSEGISLQDMSCSEELQCCQSEILELRCTVNALEVERQAQHTLKDCLQNSLCEAEDRFGTELAQMQSLISNVEEQLSEIRADLERQNQEYQVLLDVKTRLENEIATYRNLLESEDCKLPCNPCSTSPSCVTAPCAPRPSCGPCTTCGPTCGASTTGSRF
partner: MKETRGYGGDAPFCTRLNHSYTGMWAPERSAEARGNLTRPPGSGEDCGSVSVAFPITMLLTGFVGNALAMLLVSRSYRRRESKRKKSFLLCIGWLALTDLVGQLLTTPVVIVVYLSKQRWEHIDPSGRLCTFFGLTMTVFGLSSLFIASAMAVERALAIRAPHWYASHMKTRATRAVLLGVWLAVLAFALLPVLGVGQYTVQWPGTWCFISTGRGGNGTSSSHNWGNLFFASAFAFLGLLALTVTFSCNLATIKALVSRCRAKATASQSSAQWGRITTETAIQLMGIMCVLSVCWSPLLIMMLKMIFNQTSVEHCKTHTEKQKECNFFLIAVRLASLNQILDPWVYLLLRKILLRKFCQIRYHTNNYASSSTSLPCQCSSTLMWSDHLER
B5: Pleckstrin homology domain-containing family G member 2 (Homo sapiens), Q9H7P9 (parent)
chain: MPEGAQGLSLSKPSPSLGCGRRGEVCDCGTVCETRTAPAAPTMASPRGSGSSTSLSTVGSEGDPAPGPTPACSASRPEPLPGPPIRLHLSPVGIPGSARPSRLERVAREIVETERAYVRDLRSIVEDYLGPLLDGGVLGLSVEQVGTLFANIEDIYEFSSELLEDLENSSSAGGIAECFVQRSEDFDIYTLYCMNYPSSLALLRELSLSPPAALWLQERQAQLRHSLPLQSFLLKPVQRILKYHLLLQELGKHWAEGPGTGGREMVEEAIVSMTAVAWYINDMKRKQEHAARLQEVQRRLGGWTGPELSAFGELVLEGAFRGGGGGGPRLRGGERLLFLFSRMLLVAKRRGLEYTYKGHIFCCNLSVSESPRDPLGFKVSDLTIPKHRHLLQAKNQEEKRLWIHCLQRLFFENHPASIPAKAKQVLLENSLHCAPKSKPVLEPLTPPLGSPRPRDARSFTPGRRNTAPSPGPSVIRRGRRQSEPVKDPYVMFPQNAKPGFKHAGSEGELYPPESQPPVSGSAPPEDLEDAGPPTLDPSGTSITEEILELLNQRGLRDPGPSTHDIPKFPGDSQVPGDSETLTFQALPSRDSSEEEEEEEEGLEMDERGPSPLHVLEGLESSIAAEMPSIPCLTKIPDVPNLPEIPSRCEIPEGSRLPSLSDISDVFEMPCLPAIPSVPNTPSLSSTPTLSCDSWLQGPLQEPAEAPATRRELFSGSNPGKLGEPPSGGKAGPEEDEEGVSFTDFQPQDVTQHQGFPDELAFRSCSEIRSAWQALEQGQLARPGFPEPLLILEDSDLGGDSGSGKAGAPSSERTASRVRELARLYSERIQQMQRAETRASANAPRRRPRVLAQPQPSPCLPQEQAEPGLLPAFGHVLVCELAFPLTCAQESVPLGPAVWVQAAIPLSKQGGSPDGQGLHVSNLPKQDLPGIHVSAATLLPEQGGSRHVQAPAATPLPKQEGPLHLQVPALTTFSDQGHPEIQVPATTPLPEHRSHMVIPAPSTAFCPEQGHCADIHVPTTPALPKEICSDFTVSVTTPVPKQEGHLDSESPTNIPLTKQGGSRDVQGPDPVCSQPIQPLSWHGSSLDPQGPGDTLPPLPCHLPDLQIPGTSPLPAHGSHLDHRIPANAPLSLSQELPDTQVPATTPLPLPQVLTDIWVQALPTSPKQGSLPDIQGPAAAPPLPEPSLTDTQVQKLTPSLEQKSLIDAHVPAATPLPERGGSLDIQGLSPTPVQTTMVLSKPGGSLASHVARLESSDLTPPHSPPPSSRQLLGPNAAALSRYLAASYISQSLARRQGPGGGAPAASRGSWSSAPTSRASSPPPQPQPPPPPARRLSYATTVNIHVGGGGRLRPAKAQVRLNHPALLASTQESMGLHRAQGAPDAPFHM
B6: Keratin, type I cuticular Ha8 (Homo sapiens), O76015 (parent)
chain: B4 chain
partner: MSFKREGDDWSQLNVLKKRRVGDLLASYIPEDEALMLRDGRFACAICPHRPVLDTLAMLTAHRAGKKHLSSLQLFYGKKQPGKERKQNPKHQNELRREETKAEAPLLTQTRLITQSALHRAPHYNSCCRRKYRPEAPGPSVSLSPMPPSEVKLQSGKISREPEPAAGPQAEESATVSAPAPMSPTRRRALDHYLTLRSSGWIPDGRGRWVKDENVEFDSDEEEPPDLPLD

Variants of: B1
Settings: with bfsp2_human BFSP2, Q13515

effect of a mutation on the interaction | Variant
with no effect | L180F

Variants of: B2
Settings: with cchcr_human CCHCR1, Q8TD31

Variant | effect of a mutation on the interaction
K288E | with no effect

Variants of: B3
Settings: with rbpms_human RBPMS

effect of a mutation on the interaction | Variant
with no effect | T147M

Variants of: B4
Settings: with pe2r3_human PTGER3, P43115

effect of a mutation on the interaction | Variant
with no effect | N270K

Variants of: B4
Settings: with pe2r3_human PTGER3, P43115
Remark: another data set of the same source

effect of a mutation on the interaction | Variant
with no effect | D306A

Variants of: B5
Settings: with actn3_human ACTN3, Q08043
Sequence of actn3_human ACTN3, Q08043 (Q08043 whole entry): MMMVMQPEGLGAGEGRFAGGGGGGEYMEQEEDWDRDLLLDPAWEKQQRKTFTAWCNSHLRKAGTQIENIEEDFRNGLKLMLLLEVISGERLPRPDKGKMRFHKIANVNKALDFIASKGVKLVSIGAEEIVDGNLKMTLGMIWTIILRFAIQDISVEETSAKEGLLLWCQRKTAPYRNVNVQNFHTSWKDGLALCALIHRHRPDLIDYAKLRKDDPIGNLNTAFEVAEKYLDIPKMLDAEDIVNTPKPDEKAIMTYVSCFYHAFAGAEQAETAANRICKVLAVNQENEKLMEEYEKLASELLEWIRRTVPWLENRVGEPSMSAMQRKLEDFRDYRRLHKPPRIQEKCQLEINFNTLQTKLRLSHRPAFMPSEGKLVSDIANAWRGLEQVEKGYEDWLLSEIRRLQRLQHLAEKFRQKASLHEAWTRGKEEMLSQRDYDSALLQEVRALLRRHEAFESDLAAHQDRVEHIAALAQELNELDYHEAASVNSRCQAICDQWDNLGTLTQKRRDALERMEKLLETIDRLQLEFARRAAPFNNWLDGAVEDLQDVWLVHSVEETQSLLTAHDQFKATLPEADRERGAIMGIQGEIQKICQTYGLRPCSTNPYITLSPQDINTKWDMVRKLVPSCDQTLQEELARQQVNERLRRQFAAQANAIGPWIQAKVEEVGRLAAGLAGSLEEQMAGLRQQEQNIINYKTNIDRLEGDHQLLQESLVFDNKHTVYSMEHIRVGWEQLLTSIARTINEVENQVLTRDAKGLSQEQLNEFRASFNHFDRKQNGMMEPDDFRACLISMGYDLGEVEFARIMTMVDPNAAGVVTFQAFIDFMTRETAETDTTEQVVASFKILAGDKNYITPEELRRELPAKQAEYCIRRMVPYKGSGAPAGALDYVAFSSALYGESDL

effect of a mutation on the interaction | Variant
with no effect | V1248I

Variants of: B6
Settings: with scnm1_human SCNM1, Q9BWG6

effect of a mutation on the interaction | Variant
with no effect | D306A
